Positions count from the first letter of the chain named.

The chains are these.
B1: 144 (antibody, V domains shown)
VH: QVQLVQSGSELKKPGASVKVSCKASGYTFTDYSMHWVRQAPGQGLEWMGWINTETGEPTYADDFKGRFVFSLDTSVSTAYLQISSLKAEDTAVYYCARIPLYYYGSRYWYFDVWGQGTTVTVSS
VL: DIQMTQSPSSLSASVGDRVTITCRASENIYRNLAWYQQKPGKAPQLLLYAATNLADGVPSRFSGSGSGTDYTLTISSLQPEDFATYYCQHFWGTPWTFGQGTKVEIK
modifications: synthetic humanized antibody heavy chain variable region sequence; synthetic humanized antibody light chain variable region sequence
B2: 135 (antibody, V domains shown)
VH: B1 VH
VL: EIVMTQSPATLSVSPGERATLSCRASENIYRNLAWYQQKPGQSPRLLIYAATNLADGIPARFSGSGSGTEYTLTISSLQSEDFAVYYCQHFWGTPWTFGQGTKVEIK
modifications: synthetic humanized antibody heavy chain variable region sequence; synthetic humanized antibody light chain variable region sequence
B3: 132 (antibody, V domains shown)
VH: B1 VH with V2I, E46K, D62Q, D63G, K65T
VL: B2 VL
modifications: synthetic humanized antibody heavy chain variable region sequence; synthetic humanized antibody light chain variable region sequence
B4: 160 (antibody, V domains shown)
VH: B1 VH with V2I, E46K
VL: B1 VL
modifications: synthetic humanized antibody heavy chain variable region sequence; synthetic humanized antibody light chain variable region sequence
B5: 75 (antibody)
VH: B1 VH with D62Q, D63G, K65T
VL: B1 VL with Q45K, L48V
chain: ASTKGPSVFPLAPSSKSTSGGTAALGCLVKDYFPEPVTVSWNSGALTSGVHTFPAVLQSSGLYSLSSVVTVPSSSLGTQTYICNVNHKPSNTKVDKRVEPKSCDKTHTCPPCPAPPAAAPSVFLFPPKPKDTLMISRTPEVTCVVVDVSHEDPEVQFNWYVDGVEVHNAKTKPREEQFNSTFRVVSVLTVVHQDWLNGKEYKCKVSNKGLPAPIEKTISKTKGQPREPQVYTLPPSREEMTKNQVSLTCLVKGFYPSDIAVEWESNGQPENNYKTTPPMLDSDGSFFLYSKLTVDKSRWQQGNVFSCSVMHEALHNHYTQKSLSLSPG
modifications: synthetic humanized antibody heavy chain variable region sequence; synthetic humanized antibody light chain variable region sequence; synthetic antibody constant region sequence
B6: 159 (antibody, V domains shown)
VH: B1 VH with E46K
VL: B1 VL
modifications: synthetic humanized antibody heavy chain variable region sequence; synthetic humanized antibody light chain variable region sequence
B7: 134 (antibody, V domains shown)
VH: B1 VH with E46K, D62Q, D63G, K65T
VL: B2 VL
modifications: synthetic humanized antibody heavy chain variable region sequence; synthetic humanized antibody light chain variable region sequence
B8: 133 (antibody, V domains shown)
VH: B1 VH with D62Q, D63G, K65T
VL: B2 VL
modifications: synthetic humanized antibody heavy chain variable region sequence; synthetic humanized antibody light chain variable region sequence

One assay concerns the target T1, human EphA3 (Homo sapiens, UniProt P29320).
T1 construct: a protein of the extracellular region of each human Eph receptor fused with the SEAP protein and the His tag; made in house; host or cells: Expi293F cells (culture supernatant)
T1 sequence (P29320 21-541 limits assumed): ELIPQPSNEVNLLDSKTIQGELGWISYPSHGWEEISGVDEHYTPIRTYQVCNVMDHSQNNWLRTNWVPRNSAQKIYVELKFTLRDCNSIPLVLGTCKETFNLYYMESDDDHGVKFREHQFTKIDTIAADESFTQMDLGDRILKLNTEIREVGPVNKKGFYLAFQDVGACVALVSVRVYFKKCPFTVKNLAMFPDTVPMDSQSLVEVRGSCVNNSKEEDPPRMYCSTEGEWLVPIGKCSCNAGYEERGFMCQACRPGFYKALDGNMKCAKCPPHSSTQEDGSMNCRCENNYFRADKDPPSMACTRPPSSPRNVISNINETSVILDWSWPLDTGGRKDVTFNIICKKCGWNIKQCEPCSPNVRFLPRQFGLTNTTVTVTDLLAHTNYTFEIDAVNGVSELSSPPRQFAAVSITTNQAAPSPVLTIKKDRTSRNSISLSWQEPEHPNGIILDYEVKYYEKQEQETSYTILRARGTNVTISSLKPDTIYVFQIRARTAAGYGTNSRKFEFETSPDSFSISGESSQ
Kind of assay: Selectivity ELISA of humanized antibodies for human Eph receptor. The format is binding. As to conditions: coated protein 1 nM. The essentials: (§1)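 His-tagged SEAP fusions of each human Eph receptor extracellular region, from Expi293F supernatants, were captured at 1 nM on anti-His-coated wells. Humanized antibody was bound 1 h at room temperature, then detected with HRP […] IgG. TMB development was acid-stopped and read at 450 nm.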
In general terms: An ELISA detects its analyte on a solid surface through an enzyme-linked reagent.
Take B1: the “hEphA3-SEAP-: absorbance at 450 nm, percentage with respect to hEphA4-SEAP-His as 100%” value is reported as 5.7%.
Still for that read-out and setting: under B2 stands 5.0%; under B3, 4.8%; under B4, 6.2%.
For B5, the “hEphA3-SEAP-: absorbance at 450 nm, percentage with respect to hEphA4-SEAP-His as 100%” value turned out to be 4.8%.
Take B6: the “hEphA3-SEAP-: absorbance at 450 nm, percentage with respect to hEphA4-SEAP-His as 100%” value was 5.4%.
For B7, the “hEphA3-SEAP-: absorbance at 450 nm, percentage with respect to hEphA4-SEAP-His as 100%” value turned out to be 5.0%.
As to B8, the “hEphA3-SEAP-: absorbance at 450 nm, percentage with respect to hEphA4-SEAP-His as 100%” value is 5.0%.

The target in the next assay is SEAP-His (Homo sapiens, UniProt P05187). The description is as above. The format is binding. As to conditions: coated protein 1 nM. The essentials: as §1
SEAP-His, sequence (P05187 23-511 limits assumed): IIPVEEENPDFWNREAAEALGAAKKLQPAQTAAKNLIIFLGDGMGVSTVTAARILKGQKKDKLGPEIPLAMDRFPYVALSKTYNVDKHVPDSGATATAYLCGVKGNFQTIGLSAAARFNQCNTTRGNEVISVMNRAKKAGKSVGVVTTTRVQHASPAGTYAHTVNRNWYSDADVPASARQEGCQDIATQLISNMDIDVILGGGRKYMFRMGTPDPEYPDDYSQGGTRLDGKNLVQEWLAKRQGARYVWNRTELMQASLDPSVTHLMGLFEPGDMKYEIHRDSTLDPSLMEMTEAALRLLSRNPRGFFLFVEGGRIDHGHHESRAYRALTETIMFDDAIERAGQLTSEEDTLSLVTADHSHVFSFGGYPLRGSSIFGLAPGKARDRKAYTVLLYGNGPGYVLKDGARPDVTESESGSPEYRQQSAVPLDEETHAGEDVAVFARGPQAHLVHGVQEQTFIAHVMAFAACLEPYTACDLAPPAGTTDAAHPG
On to B1, for which the “SEAP-His: absorbance at 450 nm, percentage with respect to hEphA4-SEAP-His as 100%” value was 5.7%.
On the same count and under the same terms, the value for B2 was 5.3%; that for B3 was 4.9%.
Regarding B4, the “SEAP-His: absorbance at 450 nm, percentage with respect to hEphA4-SEAP-His as 100%” value is listed as 6.3%.
On the same count and under the same terms, under B5 stands 4.4%.
For the molecule B6, the “SEAP-His: absorbance at 450 nm, percentage with respect to hEphA4-SEAP-His as 100%” value is on record as 5.3%.
On the same count and under the same terms, under B7 stands 5.1%; under B8, 4.7%.

The target of the next assay is T2, human EphB3 (Homo sapiens, UniProt P54753).
T2 construct: a protein of the extracellular region of each human Eph receptor fused with the SEAP protein and the His tag; made in house; host or cells: Expi293F cells
T2 sequence (P54753 34-559 limits assumed): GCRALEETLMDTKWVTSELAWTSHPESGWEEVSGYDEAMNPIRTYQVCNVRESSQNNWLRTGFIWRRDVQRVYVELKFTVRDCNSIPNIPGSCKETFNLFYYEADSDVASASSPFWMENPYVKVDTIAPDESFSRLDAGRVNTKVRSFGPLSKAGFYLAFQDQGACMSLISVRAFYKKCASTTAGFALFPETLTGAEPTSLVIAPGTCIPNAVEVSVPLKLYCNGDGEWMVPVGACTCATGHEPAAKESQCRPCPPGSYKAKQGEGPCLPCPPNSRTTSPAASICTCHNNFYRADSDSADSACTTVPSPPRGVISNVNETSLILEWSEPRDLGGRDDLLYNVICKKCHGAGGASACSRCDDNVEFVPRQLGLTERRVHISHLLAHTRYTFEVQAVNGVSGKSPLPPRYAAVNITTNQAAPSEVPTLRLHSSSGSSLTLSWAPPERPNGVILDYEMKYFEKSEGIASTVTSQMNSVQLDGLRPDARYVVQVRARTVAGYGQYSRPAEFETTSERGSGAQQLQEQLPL
The assay is described as above. As to conditions: coated protein 1 nM. The format is binding. The gist of the method:
as §1
With B1, the “hEphB3-SEAP-: absorbance at 450 nm, percentage with respect to hEphA4-SEAP-His as 100%” value worked out at 5.8%.
As for B2, the “hEphB3-SEAP-: absorbance at 450 nm, percentage with respect to hEphA4-SEAP-His as 100%” value turned out to be 5.0%.
Still for that read-out and setting: the value for B3 was 4.7%; that for B4 was 6.2%; that for B5 was 4.7%.
With B6, the “hEphB3-SEAP-: absorbance at 450 nm, percentage with respect to hEphA4-SEAP-His as 100%” value is 5.5%.
Consider B7, for which the “hEphB3-SEAP-: absorbance at 450 nm, percentage with respect to hEphA4-SEAP-His as 100%” value was found to be 5.2%.
On the same count and under the same terms, under B8 stands 4.7%.

In another assay the target is T3, human EphA8 (Homo sapiens, UniProt P29322).
T3 construct: a protein of the extracellular region of each human Eph receptor fused with the SEAP protein and the His tag; made in house; host or cells: Expi293F cells (culture supernatant)
T3 sequence (P29322 28-542 limits assumed): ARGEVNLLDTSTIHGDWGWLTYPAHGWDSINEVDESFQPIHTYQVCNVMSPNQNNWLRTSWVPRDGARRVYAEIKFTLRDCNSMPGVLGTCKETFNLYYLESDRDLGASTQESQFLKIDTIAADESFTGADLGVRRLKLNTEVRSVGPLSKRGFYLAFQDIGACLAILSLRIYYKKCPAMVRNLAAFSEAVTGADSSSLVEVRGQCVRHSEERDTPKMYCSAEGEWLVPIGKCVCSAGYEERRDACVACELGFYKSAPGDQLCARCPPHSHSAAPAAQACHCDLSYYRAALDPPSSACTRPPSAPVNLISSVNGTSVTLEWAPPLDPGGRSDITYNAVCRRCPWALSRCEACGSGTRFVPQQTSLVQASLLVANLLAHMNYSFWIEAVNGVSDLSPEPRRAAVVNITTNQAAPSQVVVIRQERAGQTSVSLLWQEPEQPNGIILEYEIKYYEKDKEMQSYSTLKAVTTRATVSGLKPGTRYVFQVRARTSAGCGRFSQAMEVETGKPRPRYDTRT
Described as above. In kind it is binding. As to conditions: coated protein 1 nM. The gist of the method: as §1
Regarding B1, the “hEphA8-SEAP-: absorbance at 450 nm, percentage with respect to hEphA4-SEAP-His as 100%” value is listed as 5.8%.
Regarding B2, the “hEphA8-SEAP-: absorbance at 450 nm, percentage with respect to hEphA4-SEAP-His as 100%” value was determined as 5.0%.
On to B3, for which the “hEphA8-SEAP-: absorbance at 450 nm, percentage with respect to hEphA4-SEAP-His as 100%” value turned out to be 4.7%.
In the case of B4, the “hEphA8-SEAP-: absorbance at 450 nm, percentage with respect to hEphA4-SEAP-His as 100%” value was 5.4%.
Still for that read-out and setting: under B5 stands 4.8%; under B6, 5.5%.
With B7, the “hEphA8-SEAP-: absorbance at 450 nm, percentage with respect to hEphA4-SEAP-His as 100%” value is recorded as 5.7%.
The same measure, in the same setting: the value for B8 was 4.7%.

In another assay the target is T4, human EphA2 (Homo sapiens, UniProt P29317).
T4 construct: a protein of the extracellular region of each human Eph receptor fused with the SEAP protein and the His tag; made in house; host or cells: Expi293F cells (culture supernatant)
T4 sequence (P29317 24-537 limits assumed): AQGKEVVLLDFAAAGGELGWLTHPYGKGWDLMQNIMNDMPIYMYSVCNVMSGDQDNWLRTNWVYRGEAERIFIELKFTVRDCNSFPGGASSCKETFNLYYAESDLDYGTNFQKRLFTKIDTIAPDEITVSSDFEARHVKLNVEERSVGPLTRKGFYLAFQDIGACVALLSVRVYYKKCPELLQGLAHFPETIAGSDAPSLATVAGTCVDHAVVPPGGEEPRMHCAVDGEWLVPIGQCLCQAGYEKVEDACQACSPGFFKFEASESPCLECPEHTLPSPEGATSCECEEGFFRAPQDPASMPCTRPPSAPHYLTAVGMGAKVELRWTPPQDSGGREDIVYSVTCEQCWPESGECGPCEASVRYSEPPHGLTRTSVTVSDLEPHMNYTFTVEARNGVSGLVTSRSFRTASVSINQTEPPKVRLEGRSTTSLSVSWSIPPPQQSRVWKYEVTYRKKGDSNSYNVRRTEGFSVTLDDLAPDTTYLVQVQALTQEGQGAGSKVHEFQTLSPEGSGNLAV
The description is as above. As to conditions: coated protein 1 nM. In kind it is binding. The gist of the method:
as §1
With B1, the “hEphA2-SEAP-: absorbance at 450 nm, percentage with respect to hEphA4-SEAP-His as 100%” value came out at 5.6%.
Turning to B2, the “hEphA2-SEAP-: absorbance at 450 nm, percentage with respect to hEphA4-SEAP-His as 100%” value was 5.0%.
The same measure, in the same setting: under B3 stands 4.8%; under B4, 6.1%; under B5, 4.6%.
Same read-out and setting: under B6 stands 5.4%; under B7, 5.0%; under B8, 4.7%.

The values above are taken from US10428140B2, “Anti-EphA4 antibody” (EISAI R&D MANAGEMENT CO., LTD., priority 2015, dated 2019).
